Reference: paper doi:10.1101/2024.09.05.611129 (bioRxiv, 2024)

Biological target: the molecule itself
Test: SEC

B1: Mycobacterium tuberculosis catalase-peroxidase KatG (enzyme)
chain: MPEQHPPITETTTGAASNGCPVVGHMKYPVEGGGNQDWWPNRLNLKVLHQNPAVADPMGAAFDYAAEVATIDVDALTRDIEEVMTTSQPWWPADYGHYGPLFIRMAWHAAGTYRIHDGRGGAGGGMQRFAPLNSWPDNASLDKARRLLWPVKKKYGKKLSWADLIVFAGNCALESMGFKTFGFGFGRVDQWEPDEVYWGKEATWLGDERYSGKRDLENPLAAVQMGLIYVNPEGPNGNPDPMAAAVDIRETFRRMAMNDVETAALIVGGHTFGKTHGAGPADLVGPEPEAAPLEQMGLGWKSSYGTGTGKDAITSGIEVVWTNTPTKWDNSFLEILYGYEWELTKSPAGAWQYTAKDGAGAGTIPDPFGGPGRSPTMLATDLSLRVDPIYERITRRWLEHPEELADEFAKAWYKLIHRDMGPVARYLGPLVPKQTLLWQDPVPAVSHDLVGEAEIASLKSQIRASGLTVSQLVSTAWAAASSFRGSDKRGGANGGRIRLQPQVGWEVNDPDGDLRKVIRTLEEIQESFNSAAPGNIKVSFADLVVLGGCAAIEKAAKAAGHNITVPFTPGRTDASQEQTDVESFAVLEPKADGFRNYLGKGNPLPAEYMLLDKANLLTLSAPEMTVLVGGLRVLGANYKRLPLGVFTEASESLTNDFFVNLLDMGITWEPSPADDGTYQGKDGSGKVKWTGSRVDLVFGSNSELRALVEVYGADDAQPKFVQDFVAAWDKVMNLDRFDVR
B1 was tested, and the “stoichiometry N” value was 2.
